B1: GCH055-G1dh/none-Hi-Kn010G3/L0212-k0 (antibody, human IgG1, kappa)
heavy: not shown
chain: EPKSSDKTHTCPPCPAPELLGGPSVFLFPPKPKDTLMISRTPEVTCVVVDVSHEDPEVKFNWYVDGVEVHNAKTKPREEQYNSTYRVVSVLTVLHQDWLNGKEYKCKVSNKALPAPIEKTISKAKGQPREPQVCTLPPSRDELTKNQVSLWCLVKGFYPSDIAVEWESNGQPENNYKTTPPVLDSDGSFFLYSKLTVDKSRWQQGNVFSCSVMHEALHNRYTQKSLSLSP
light: DIVMTQSPLSLPVTPGEPASISCRPSQSPVHSNRNTYLHWYQQKPGQAPRLLIYKVSNRFSGVPDRFSGSGSGTDFTLKISRVEAEDVGVYYCYQGTQVPYTFGQGTKLEIKRTVAAPSVFIFPPSDEQLKSGTASVVCLLNNFYPREAKVQWKVDNALQSGNSQESVTEQDSKDSTYSLSSTLTLSKADYEKHKVYACEVTHQGLSSPVTKSFNRGEC
notes: single-arm (one Fab)
B2: GCH055-G1dh/none-Hi-Kn010G3/L0215-k0 (antibody, human IgG1, kappa)
heavy: not shown
chain: EPKSSDKTHTCPPCPAPELLGGPSVFLFPPKPKDTLMISRTPEVTCVVVDVSHEDPEVKFNWYVDGVEVHNAKTKPREEQYNSTYRVVSVLTVLHQDWLNGKEYKCKVSNKALPAPIEKTISKAKGQPREPQVCTLPPSRDELTKNQVSLWCLVKGFYPSDIAVEWESNGQPENNYKTTPPVLDSDGSFFLYSKLTVDKSRWQQGNVFSCSVMHEALHNRYTQKSLSLSP
light: DIVMTQSPLSLPVTPGEPASISCRSSQPPVHSNRNTYIHWYQQKPGQAPRLLIYKVSNRFSGVPDRFSGSGSGTDFTLKISRVEAEDVGVYYCGQGTQVPYTFGQGTKLEIKRTVAAPSVFIFPPSDEQLKSGTASVVCLLNNFYPREAKVQWKVDNALQSGNSQESVTEQDSKDSTYSLSSTLTLSKADYEKHKVYACEVTHQGLSSPVTKSFNRGEC
notes: single-arm (one Fab)
B3: GCH055-G1dh/none-Hi-Kn010G3/L0222-k0 (antibody, human IgG1, kappa)
heavy: not shown
chain: EPKSSDKTHTCPPCPAPELLGGPSVFLFPPKPKDTLMISRTPEVTCVVVDVSHEDPEVKFNWYVDGVEVHNAKTKPREEQYNSTYRVVSVLTVLHQDWLNGKEYKCKVSNKALPAPIEKTISKAKGQPREPQVCTLPPSRDELTKNQVSLWCLVKGFYPSDIAVEWESNGQPENNYKTTPPVLDSDGSFFLYSKLTVDKSRWQQGNVFSCSVMHEALHNRYTQKSLSLSP
light: DIVMTQSPLSLPVTPGEPASISCRSSQSPVHSNRNTYIQWYQQKPGQAPRLLIYKVSNRFSGVPDRFSGSGSGTDFTLKISRVEAEDVGVYYCYQGTQVPYTFGQGTKLEIKRTVAAPSVFIFPPSDEQLKSGTASVVCLLNNFYPREAKVQWKVDNALQSGNSQESVTEQDSKDSTYSLSSTLTLSKADYEKHKVYACEVTHQGLSSPVTKSFNRGEC
notes: single-arm (one Fab)
B4: GCH056-G1dh/none-Hi-Kn010G3/L0201-k0 (antibody, human IgG1, kappa)
heavy: not shown
chain: EPKSSDKTHTCPPCPAPELLGGPSVFLFPPKPKDTLMISRTPEVTCVVVDVSHEDPEVKFNWYVDGVEVHNAKTKPREEQYNSTYRVVSVLTVLHQDWLNGKEYKCKVSNKALPAPIEKTISKAKGQPREPQVCTLPPSRDELTKNQVSLWCLVKGFYPSDIAVEWESNGQPENNYKTTPPVLDSDGSFFLYSKLTVDKSRWQQGNVFSCSVMHEALHNRYTQKSLSLSP
light: DIVMTQSPLSLPVTPGEPASISCRSSQPPVHSNRNTYLHWYQQKPGQAPRLLIYKVSNRFSGVPDRFSGSGSGTDFTLKISRVEAEDVGVYYCGQGTQVPYTFGQGTKLEIKRTVAAPSVFIFPPSDEQLKSGTASVVCLLNNFYPREAKVQWKVDNALQSGNSQESVTEQDSKDSTYSLSSTLTLSKADYEKHKVYACEVTHQGLSSPVTKSFNRGEC
notes: single-arm (one Fab)
B5: GCH056-G1dh/none-Hi-Kn010G3/L0215-k0 (antibody, human IgG1, kappa)
heavy: not shown
chain: EPKSSDKTHTCPPCPAPELLGGPSVFLFPPKPKDTLMISRTPEVTCVVVDVSHEDPEVKFNWYVDGVEVHNAKTKPREEQYNSTYRVVSVLTVLHQDWLNGKEYKCKVSNKALPAPIEKTISKAKGQPREPQVCTLPPSRDELTKNQVSLWCLVKGFYPSDIAVEWESNGQPENNYKTTPPVLDSDGSFFLYSKLTVDKSRWQQGNVFSCSVMHEALHNRYTQKSLSLSP
light: DIVMTQSPLSLPVTPGEPASISCRSSQPPVHSNRNTYIHWYQQKPGQAPRLLIYKVSNRFSGVPDRFSGSGSGTDFTLKISRVEAEDVGVYYCGQGTQVPYTFGQGTKLEIKRTVAAPSVFIFPPSDEQLKSGTASVVCLLNNFYPREAKVQWKVDNALQSGNSQESVTEQDSKDSTYSLSSTLTLSKADYEKHKVYACEVTHQGLSSPVTKSFNRGEC
notes: single-arm (one Fab)
B6: GCH056-G1dh/none-Hi-Kn010G3/L0262-k0 (antibody, human IgG1, kappa)
heavy: not shown
chain: EPKSSDKTHTCPPCPAPELLGGPSVFLFPPKPKDTLMISRTPEVTCVVVDVSHEDPEVKFNWYVDGVEVHNAKTKPREEQYNSTYRVVSVLTVLHQDWLNGKEYKCKVSNKALPAPIEKTISKAKGQPREPQVCTLPPSRDELTKNQVSLWCLVKGFYPSDIAVEWESNGQPENNYKTTPPVLDSDGSFFLYSKLTVDKSRWQQGNVFSCSVMHEALHNRYTQKSLSLSP
light: DIVMTQSPLSLPVTPGEPASISCRSSQPPVHSNRNTYLHWYQQKPGQAPRLLIYKVSNRFSGVPDRFSGSGSGTDFTLKISRVEAEDVGVYYCAQGTQVPYTFGQGTKLEIKRTVAAPSVFIFPPSDEQLKSGTASVVCLLNNFYPREAKVQWKVDNALQSGNSQESVTEQDSKDSTYSLSSTLTLSKADYEKHKVYACEVTHQGLSSPVTKSFNRGEC
notes: single-arm (one Fab)
B7: GCH057-G1dh/none-Hi-Kn010G3/L0215-k0 (antibody, human IgG1, kappa)
heavy: not shown
chain: EPKSSDKTHTCPPCPAPELLGGPSVFLFPPKPKDTLMISRTPEVTCVVVDVSHEDPEVKFNWYVDGVEVHNAKTKPREEQYNSTYRVVSVLTVLHQDWLNGKEYKCKVSNKALPAPIEKTISKAKGQPREPQVCTLPPSRDELTKNQVSLWCLVKGFYPSDIAVEWESNGQPENNYKTTPPVLDSDGSFFLYSKLTVDKSRWQQGNVFSCSVMHEALHNRYTQKSLSLSP
light: DIVMTQSPLSLPVTPGEPASISCRSSQPPVHSNRNTYIHWYQQKPGQAPRLLIYKVSNRFSGVPDRFSGSGSGTDFTLKISRVEAEDVGVYYCGQGTQVPYTFGQGTKLEIKRTVAAPSVFIFPPSDEQLKSGTASVVCLLNNFYPREAKVQWKVDNALQSGNSQESVTEQDSKDSTYSLSSTLTLSKADYEKHKVYACEVTHQGLSSPVTKSFNRGEC
notes: single-arm (one Fab)
B8: GCH057-G1dh/none-Hi-Kn010G3/L0222-k0 (antibody, human IgG1, kappa)
heavy: not shown
chain: EPKSSDKTHTCPPCPAPELLGGPSVFLFPPKPKDTLMISRTPEVTCVVVDVSHEDPEVKFNWYVDGVEVHNAKTKPREEQYNSTYRVVSVLTVLHQDWLNGKEYKCKVSNKALPAPIEKTISKAKGQPREPQVCTLPPSRDELTKNQVSLWCLVKGFYPSDIAVEWESNGQPENNYKTTPPVLDSDGSFFLYSKLTVDKSRWQQGNVFSCSVMHEALHNRYTQKSLSLSP
light: DIVMTQSPLSLPVTPGEPASISCRSSQSPVHSNRNTYIQWYQQKPGQAPRLLIYKVSNRFSGVPDRFSGSGSGTDFTLKISRVEAEDVGVYYCYQGTQVPYTFGQGTKLEIKRTVAAPSVFIFPPSDEQLKSGTASVVCLLNNFYPREAKVQWKVDNALQSGNSQESVTEQDSKDSTYSLSSTLTLSKADYEKHKVYACEVTHQGLSSPVTKSFNRGEC
notes: single-arm (one Fab)
B9: GCH060-G1dh/none-Hi-Kn010G3/L0200-k0 (antibody, human IgG1, kappa)
heavy: not shown
chain: EPKSSDKTHTCPPCPAPELLGGPSVFLFPPKPKDTLMISRTPEVTCVVVDVSHEDPEVKFNWYVDGVEVHNAKTKPREEQYNSTYRVVSVLTVLHQDWLNGKEYKCKVSNKALPAPIEKTISKAKGQPREPQVCTLPPSRDELTKNQVSLWCLVKGFYPSDIAVEWESNGQPENNYKTTPPVLDSDGSFFLYSKLTVDKSRWQQGNVFSCSVMHEALHNRYTQKSLSLSP
light: DIVMTQSPLSLPVTPGEPASISCRPSQSPVHSNRNTYLHWYQQKPGQAPRLLIYKVSNRFSGVPDRFSGSGSGTDFTLKISRVEAEDVGVYYCGQGTQVPYTFGQGTKLEIKRTVAAPSVFIFPPSDEQLKSGTASVVCLLNNFYPREAKVQWKVDNALQSGNSQESVTEQDSKDSTYSLSSTLTLSKADYEKHKVYACEVTHQGLSSPVTKSFNRGEC
notes: single-arm (one Fab)
B10: GCH060-G1dh/none-Hi-Kn010G3/L0222-k0 (antibody, human IgG1, kappa)
heavy: not shown
chain: EPKSSDKTHTCPPCPAPELLGGPSVFLFPPKPKDTLMISRTPEVTCVVVDVSHEDPEVKFNWYVDGVEVHNAKTKPREEQYNSTYRVVSVLTVLHQDWLNGKEYKCKVSNKALPAPIEKTISKAKGQPREPQVCTLPPSRDELTKNQVSLWCLVKGFYPSDIAVEWESNGQPENNYKTTPPVLDSDGSFFLYSKLTVDKSRWQQGNVFSCSVMHEALHNRYTQKSLSLSP
light: DIVMTQSPLSLPVTPGEPASISCRSSQSPVHSNRNTYIQWYQQKPGQAPRLLIYKVSNRFSGVPDRFSGSGSGTDFTLKISRVEAEDVGVYYCYQGTQVPYTFGQGTKLEIKRTVAAPSVFIFPPSDEQLKSGTASVVCLLNNFYPREAKVQWKVDNALQSGNSQESVTEQDSKDSTYSLSSTLTLSKADYEKHKVYACEVTHQGLSSPVTKSFNRGEC
notes: single-arm (one Fab)
B11: GCH062-G1dh/none-Hi-Kn010G3/L0000-k0 (antibody, human IgG1, kappa)
heavy: not shown
chain: EPKSSDKTHTCPPCPAPELLGGPSVFLFPPKPKDTLMISRTPEVTCVVVDVSHEDPEVKFNWYVDGVEVHNAKTKPREEQYNSTYRVVSVLTVLHQDWLNGKEYKCKVSNKALPAPIEKTISKAKGQPREPQVCTLPPSRDELTKNQVSLWCLVKGFYPSDIAVEWESNGQPENNYKTTPPVLDSDGSFFLYSKLTVDKSRWQQGNVFSCSVMHEALHNRYTQKSLSLSP
light: DIVMTQSPLSLPVTPGEPASISCRSSQSLVHSNRNTYLHWYQQKPGQAPRLLIYKVSNRFSGVPDRFSGSGSGTDFTLKISRVEAEDVGVYYCGQGTQVPYTFGQGTKLEIKRTVAAPSVFIFPPSDEQLKSGTASVVCLLNNFYPREAKVQWKVDNALQSGNSQESVTEQDSKDSTYSLSSTLTLSKADYEKHKVYACEVTHQGLSSPVTKSFNRGEC
notes: single-arm (one Fab)
B12: GCH064-G1dh/none-Hi-Kn010G3/L0000-k0 (antibody, human IgG1, kappa)
heavy: not shown
chain: EPKSSDKTHTCPPCPAPELLGGPSVFLFPPKPKDTLMISRTPEVTCVVVDVSHEDPEVKFNWYVDGVEVHNAKTKPREEQYNSTYRVVSVLTVLHQDWLNGKEYKCKVSNKALPAPIEKTISKAKGQPREPQVCTLPPSRDELTKNQVSLWCLVKGFYPSDIAVEWESNGQPENNYKTTPPVLDSDGSFFLYSKLTVDKSRWQQGNVFSCSVMHEALHNRYTQKSLSLSP
light: DIVMTQSPLSLPVTPGEPASISCRSSQSLVHSNRNTYLHWYQQKPGQAPRLLIYKVSNRFSGVPDRFSGSGSGTDFTLKISRVEAEDVGVYYCGQGTQVPYTFGQGTKLEIKRTVAAPSVFIFPPSDEQLKSGTASVVCLLNNFYPREAKVQWKVDNALQSGNSQESVTEQDSKDSTYSLSSTLTLSKADYEKHKVYACEVTHQGLSSPVTKSFNRGEC
notes: single-arm (one Fab)
B13: GCH065-G1dh/none-Hi-Kn010G3/L0000-k0 (antibody, human IgG1, kappa)
heavy: not shown
chain: EPKSSDKTHTCPPCPAPELLGGPSVFLFPPKPKDTLMISRTPEVTCVVVDVSHEDPEVKFNWYVDGVEVHNAKTKPREEQYNSTYRVVSVLTVLHQDWLNGKEYKCKVSNKALPAPIEKTISKAKGQPREPQVCTLPPSRDELTKNQVSLWCLVKGFYPSDIAVEWESNGQPENNYKTTPPVLDSDGSFFLYSKLTVDKSRWQQGNVFSCSVMHEALHNRYTQKSLSLSP
light: DIVMTQSPLSLPVTPGEPASISCRSSQSLVHSNRNTYLHWYQQKPGQAPRLLIYKVSNRFSGVPDRFSGSGSGTDFTLKISRVEAEDVGVYYCGQGTQVPYTFGQGTKLEIKRTVAAPSVFIFPPSDEQLKSGTASVVCLLNNFYPREAKVQWKVDNALQSGNSQESVTEQDSKDSTYSLSSTLTLSKADYEKHKVYACEVTHQGLSSPVTKSFNRGEC
notes: single-arm (one Fab)

molecular target: T1, soluble human GPC3 (human, UniProt P51654 25-563, limits assumed); test: SPR (Biacore), soluble human GPC3
T1 construct: soluble human GPC3 as analyte; also called glypican 3
T1 sequence (P51654 other isoform, or with tags, fused parts or gaps limits assumed, form in doubt): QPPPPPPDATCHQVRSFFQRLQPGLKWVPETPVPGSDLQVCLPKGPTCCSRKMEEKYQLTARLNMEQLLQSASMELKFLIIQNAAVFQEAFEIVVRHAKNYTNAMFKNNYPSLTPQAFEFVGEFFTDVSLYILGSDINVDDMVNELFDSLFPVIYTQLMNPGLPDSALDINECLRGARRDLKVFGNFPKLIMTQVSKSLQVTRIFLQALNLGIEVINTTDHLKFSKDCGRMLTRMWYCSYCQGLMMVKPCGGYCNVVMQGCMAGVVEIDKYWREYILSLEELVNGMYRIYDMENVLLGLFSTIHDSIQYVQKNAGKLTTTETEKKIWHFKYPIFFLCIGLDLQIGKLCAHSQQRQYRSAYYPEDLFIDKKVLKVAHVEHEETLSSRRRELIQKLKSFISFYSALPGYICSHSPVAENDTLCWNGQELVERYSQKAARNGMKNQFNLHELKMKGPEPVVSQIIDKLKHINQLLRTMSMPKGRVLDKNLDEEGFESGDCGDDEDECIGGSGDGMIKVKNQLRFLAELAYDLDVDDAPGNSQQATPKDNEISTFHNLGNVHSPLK

Compared with B1, B2 is 2.5-fold higher in Kd: 0.614 nM for the first, 1.52 nM for the second. The first binds more tightly here.

Compared with B3, B4 is 300-fold higher in Kd: 0.0039 nM for the first, 1.16 nM for the second.

First: B5
Second: B6
The Kd of the first is 130-fold higher: 1.59 nM for the first, 0.0119 nM for the second. The second binds more tightly here.

First: B7
Second: B8
The Kd of the first is 990-fold higher: 1.83 nM for the first, 0.00185 nM for the second.

First: B9
Second: B10
The Kd of the first is 2100-fold higher: 1.34 nM for the first, 0.000642 nM for the second.

B11 and B12 are within 1.5-fold of each other in Kd: 3.73 nM for the first, 4.14 nM for the second.

In the case of B13, the Kd is reported as 1.41 nM.

— patent US20210388110A1 (published 2021)
